In patent US20070065878A1:

Key:
[1] = molecular target: T1, G08 (TEV substrate clone, 5X library)
T1 chain: MEWLW

[2] = molecular target: T2, G05 (TEV substrate clone, 5X library)
T2 chain: LRELW

[3] = molecular target: T3, F04 (TEV substrate clone, 5X library)
T3 chain: DRELY

[4] = molecular target: T4, A1 (TEVopt library clone)
T4 chain: FLYLQG

[5] = molecular target: D03 (TEV substrate clone, 5X library)
[6] = molecular target: T5, D4 (TEVopt library clone)
T5 chain: LLYIQG

[7] = molecular target: T6, C07 (TEV substrate clone, 5X library)
T6 chain: VEPIY

[8] = molecular target: T7, F05 (TEV substrate clone, 5X library)
T7 chain: DRELY

[9] = molecular target: T8, B02 (TEV substrate clone, 5X library)
T8 chain: EEELY

[10] = molecular target: T9, C6 (TEVopt library clone)
T9 chain: QLYFQS

[11] = molecular target: T10, H06 (TEV substrate clone, 5X library)
T10 chain: EEELW

[12] = molecular target: T11, H07 (TEV substrate clone, 5X library)
T11 chain: EEAVL

[13] = molecular target: T12, H11 (TEV substrate clone, 5X library)
T12 chain: AEWGR

[14] = molecular target: T13, H04 (TEV substrate clone, 5X library)
T13 chain: MEDLM

[15] = molecular target: T14, B11 (TEV substrate clone, 5X library)
T14 chain: GETVY

[16] = molecular target: T15, E01 (TEV substrate clone, 5X library)
T15 chain: EEYLW

[17] = molecular target: T16, C3 (TEVopt library clone)
T16 chain: DLYWQG

[18] = molecular target: Control (TEV substrate ENLYFQS)
[19] = molecular target: T17, D5 (TEVopt library clone)
T17 chain: SLYWQG

[20] = molecular target: T18, B07 (TEV substrate clone, 5X library)
T18 chain: MEEVY

[21] = molecular target: T19, G06 (TEV substrate clone, 5X library)
T19 chain: SEDLW

[22] = molecular target: T20, H03 (TEV substrate clone, 5X library)
T20 chain: ARQIR

[23] = molecular target: T21, B09 (TEV substrate clone, 5X library)
T21 chain: LEQLI

[24] = molecular target: T22, D08 (TEV substrate clone, 5X library)
T22 chain: LEWLK

[25] = molecular target: T23, E05 (TEV substrate clone, 5X library)
T23 chain: RDDGY

[26] = molecular target: T24, D10 (TEV substrate clone, 5X library)
T24 chain: LYFQG

[27] = molecular target: T25, G03 (TEV substrate clone, 5X library)
T25 chain: GDMGY

[28] = molecular target: T26, F11 (TEV substrate clone, 5X library)
T26 chain: GEPLW

[29] = molecular target: T27, C5 (TEVopt library clone)
T27 chain: ELYAQG

[30] = molecular target: T28, D11 (TEV substrate clone, 5X library)
T28 chain: GEHVY

[31] = molecular target: T29, A05 (TEV substrate clone, 5X library)
T29 chain: FEDLL

[32] = molecular target: T30, C11 (TEV substrate clone, 5X library)
T30 chain: DGALY

[33] = molecular target: T31, G02 (TEV substrate clone, 5X library)
T31 chain: GEAGF

[34] = molecular target: T32, F03 (TEV substrate clone, 5X library)
T32 chain: LESLV

[35] = molecular target: T33, D1 (TEVopt library clone)
T33 chain: WLYLQG

[36] = molecular target: T34, C10 (TEV substrate clone, 5X library)
T34 chain: PEVIY

[37] = molecular target: T35, C4 (TEVopt library clone)
T35 chain: ELYWQG

[38] = molecular target: T36, D02 (TEV substrate clone, 5X library)
T36 chain: DSELY

[39] = molecular target: T37, F02 (TEV substrate clone, 5X library)
T37 chain: EEYLW

[40] = molecular target: T38, B6 (TEVopt library clone)
T38 chain: EVYVQG

[41] = molecular target: T39, C09 (TEV substrate clone, 5X library)
T39 chain: RELVY

[42] = molecular target: T40, A3 (TEVopt library clone)
T40 chain: ALYIQG

[43] = molecular target: T41, H09 (TEV substrate clone, 5X library)
T41 chain: GEALF

[44] = molecular target: T42, A4 (TEVopt library clone)
T42 chain: VLYLQS

[45] = molecular target: T43, E11 (TEV substrate clone, 5X library)
T43 chain: WESLY

[46] = molecular target: T44, E4 (TEVopt library clone)
T44 chain: SLYVQG

[47] = molecular target: T45, E09 (TEV substrate clone, 5X library)
T45 chain: SEPLR

[48] = molecular target: T46, D01 (TEV substrate clone, 5X library; as in Table 6)
T46 chain: GEVLW

[49] = molecular target: T47, D09 (TEV substrate clone, 5X library)
T47 chain: MEMLR

[50] = molecular target: T48, C04 (TEV substrate clone, 5X library)
T48 chain: RRMAE

[51] = molecular target: T49, F09 (TEV substrate clone, 5X library)
T49 chain: GEDLL

[52] = molecular target: T50, E6 (TEVopt library clone)
T50 chain: VLYTQG

[53] = molecular target: T51, F07 (TEV substrate clone, 5X library)
T51 chain: EENLG

[54] = molecular target: T52, E07 (TEV substrate clone, 5X library)
T52 chain: ETILY

[55] = molecular target: T53, A06 (TEV substrate clone, 5X library)
T53 chain: FEDGL

[56] = molecular target: T54, A2 (TEVopt library clone)
T54 chain: DVYVQG

[57] = molecular target: T55, C05 (TEV substrate clone, 5X library)
T55 chain: REVGY

[58] = molecular target: T56, D05 (TEV substrate clone, 5X library)
T56 chain: GEAGV

[59] = molecular target: T57, D01 (TEV substrate clone, 5X library; as in Table 5A)
T57 chain: DVQLY

[60] = molecular target: E03 (TEV substrate clone, 5X library)
[61] = molecular target: T58, H08 (TEV substrate clone, 5X library)
T58 chain: WEPLW

[62] = molecular target: T59, D07 (TEV substrate clone, 5X library)
T59 chain: REVLY

[63] = molecular target: T60, D04 (TEV substrate clone, 5X library)
T60 chain: GEALF
Wherever % Conversion is given: test concentration or dose not given here.
Wherever Conversion (group heading of the table) is given: test concentration or dose not given here.
Wherever Fl (fluorescence without TEV) is given: unit not given here.
Wherever Fl after TEV is given: unit not given here.

B1: tobacco etch virus protease (protein)
chain: GESLFKGPRDYNPISSTICHLTNESDGHTTSLYGIGFGPFIITNKHLFRRNNGTLLVQSLHGVFKVKNTTTLQQHLIDGRDMIIIRMPKDFPPFPQKLKFREPQREERICLVTTNFQTKSMSSMVSDTSCTFPSSDGIFWKHWIQTKDGQCGSPLVSTRDGFIVGIHSASNFTNTNNYFTSVPKNFMELLTNQEAQQWVSGWRLNADSVLWGGHKVFMSKPEEPFQPVKEATQLMNELVYSQ
Conversion (group heading of the table) [1]: 60%-90% Conversion
Conversion (group heading of the table) [2]: 60%-90% Conversion
% Conversion (fraction (head says % Conversion)) [3]: 0.79
Conversion (group heading of the table) [3]: 60%-90% Conversion
Fl (fluorescence without TEV) [3]: 5910
Fl after TEV [3]: 1420
% Conversion (fraction (head says % Conversion)) [4]: 0.918
Conversion (group heading of the table) [5]: 60%-90% Conversion
% Conversion (fraction (head says % Conversion)) [6]: 0.517
Conversion (group heading of the table) [7]: 30%-50% conversion
Conversion (group heading of the table) [8]: 50%-60% Conversion
% Conversion (fraction (head says % Conversion)) [9]: 0.72
Conversion (group heading of the table) [9]: 60%-90% Conversion
Fl (fluorescence without TEV) [9]: 3270
Fl after TEV [9]: 1080
% Conversion (fraction (head says % Conversion)) [10]: 0.618
Conversion (group heading of the table) [11]: 60%-90% Conversion
% Conversion (fraction (head says % Conversion)) [12]: 0.71
Conversion (group heading of the table) [12]: 60%-90% Conversion
Fl (fluorescence without TEV) [12]: 2990
Fl after TEV [12]: 1040
Conversion (group heading of the table) [13]: 30%-50% conversion
Conversion (group heading of the table) [14]: 50%-60% Conversion
Conversion (group heading of the table) [15]: 30%-50% conversion
Conversion (group heading of the table) [16]: 50%-60% Conversion
% Conversion (fraction (head says % Conversion)) [17]: 0.734
% Conversion (fraction (head says % Conversion)) [18]: 0.664
% Conversion (fraction (head says % Conversion)) [19]: 0.717
Conversion (group heading of the table) [20]: 50%-60% Conversion
Conversion (group heading of the table) [21]: 60%-90% Conversion
Conversion (group heading of the table) [22]: 30%-50% conversion
% Conversion (fraction (head says % Conversion)) [23]: 0.76
Conversion (group heading of the table) [23]: 60%-90% Conversion
Fl (fluorescence without TEV) [23]: 3250
Fl after TEV [23]: 980
Conversion (group heading of the table) [24]: 60%-90% Conversion
Conversion (group heading of the table) [25]: 30%-50% conversion
Conversion (group heading of the table) [26]: 60%-90% Conversion
Conversion (group heading of the table) [27]: 30%-50% conversion
Conversion (group heading of the table) [28]: 50%-60% Conversion
% Conversion (fraction (head says % Conversion)) [29]: 0.588
Conversion (group heading of the table) [30]: 60%-90% Conversion
Conversion (group heading of the table) [31]: 50%-60% Conversion
Conversion (group heading of the table) [32]: 50%-60% Conversion
Conversion (group heading of the table) [33]: 30%-50% conversion
Conversion (group heading of the table) [34]: 60%-90% Conversion
% Conversion (fraction (head says % Conversion)) [35]: 0.68
% Conversion (fraction (head says % Conversion)) [36]: 0.81
Conversion (group heading of the table) [36]: 60%-90% Conversion
Fl (fluorescence without TEV) [36]: 6110
Fl after TEV [36]: 1380
% Conversion (fraction (head says % Conversion)) [37]: 0.689
Conversion (group heading of the table) [38]: 60%-90% Conversion
Conversion (group heading of the table) [39]: 30%-50% conversion
% Conversion (fraction (head says % Conversion)) [40]: 0.61
Conversion (group heading of the table) [41]: 30%-50% conversion
% Conversion (fraction (head says % Conversion)) [42]: 0.922
Conversion (group heading of the table) [43]: 60%-90% Conversion
% Conversion (fraction (head says % Conversion)) [44]: 0.854
% Conversion (fraction (head says % Conversion)) [45]: 0.77
Conversion (group heading of the table) [45]: 60%-90% Conversion
Fl (fluorescence without TEV) [45]: 5050
Fl after TEV [45]: 1360
% Conversion (fraction (head says % Conversion)) [46]: 0.863
Conversion (group heading of the table) [47]: 60%-90% Conversion
% Conversion (fraction (head says % Conversion)) [48]: 0.87
Fl (fluorescence without TEV) [48]: 3840
Fl after TEV [48]: 725
Conversion (group heading of the table) [49]: 60%-90% Conversion
Conversion (group heading of the table) [50]: 60%-90% Conversion
% Conversion (fraction (head says % Conversion)) [51]: 0.71
Conversion (group heading of the table) [51]: 60%-90% Conversion
Fl (fluorescence without TEV) [51]: 4810
Fl after TEV [51]: 1550
% Conversion (fraction (head says % Conversion)) [52]: 0.549
Conversion (group heading of the table) [53]: 50%-60% Conversion
Conversion (group heading of the table) [54]: 50%-60% Conversion
Conversion (group heading of the table) [55]: 30%-50% conversion
% Conversion (fraction (head says % Conversion)) [56]: 0.526
Conversion (group heading of the table) [57]: 30%-50% conversion
Conversion (group heading of the table) [58]: 30%-50% conversion
Conversion (group heading of the table) [59]: 60%-90% Conversion
Conversion (group heading of the table) [60]: 60%-90% Conversion
% Conversion (fraction (head says % Conversion)) [61]: 0.73
Conversion (group heading of the table) [61]: 60%-90% Conversion
Fl (fluorescence without TEV) [61]: 3970
Fl after TEV [61]: 1250
Conversion (group heading of the table) [62]: 60%-90% Conversion
Conversion (group heading of the table) [63]: 50%-60% Conversion
